The values below come from paper PMC5453731 (Cell chemical biology, 2017).

What is called Kd is the concentration at which binding is half-saturated.

B1: Ubp6^UBL (domain or fragment, yeast (BY4741), UniProt P43593 1-80, looked up)
chain: MSGETFEFNIRHSGKVYPITLSTDATSADLKSKAEELTQVPSARQKYMVKGGLSGEESIKIYPLIKPGSTVMLLGTPDAN
modifications: 15N-labelled
B2: Rub1 (natural protein, yeast (BY4741), UniProt Q03919 1-77, looked up)
chain: MIVKVKTLTGKEISVELKESDLVYHIKELLEEKEGIPPSQQRLIFQGKQIDDKLTVTDAHLVEGMQLHLVLTLRGG
modifications: 15N-labelled
B3: Dsk2^UBL (domain or fragment, yeast (BY4741), UniProt P48510 1-76, looked up)
chain: MSLNIHIKSGQDKWEVNVAPESTVLQFKEAINKANGIPVANQRLIYSGKILKDDQTVESYHIQDGHSVHLVKSQPK

The experiment has as its target T1, Rpn1^PC1 (Rpn1^391–642) (yeast (BY4741), UniProt P38764 391-642).
T1 sequence (looked up): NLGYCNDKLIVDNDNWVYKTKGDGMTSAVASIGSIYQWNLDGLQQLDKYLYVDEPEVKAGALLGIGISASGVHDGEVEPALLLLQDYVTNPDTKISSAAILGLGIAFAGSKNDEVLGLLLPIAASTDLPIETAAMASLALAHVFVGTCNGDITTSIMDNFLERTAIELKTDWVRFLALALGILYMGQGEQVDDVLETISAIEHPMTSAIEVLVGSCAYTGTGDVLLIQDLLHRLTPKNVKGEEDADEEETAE
As to the kind of experiment: NMR titration.
B1 returned a Kd of 40 ± 31 µM. To B2 belongs 280 ± 20 µM. The same measure for B3: 22 ± 12 µM.
